Assay results taken from patent publication US20260275304A1, “METHODS AND COMPOSITIONS FOR GLYPHOSATE TOLERANCE IN PLANTS” (Monsanto Technology LLC, priority 2023, published 2026).
Numbering of substitutions follows the chain as printed. In names and notes the source's numbering stands. Where two headings read alike, the source gives them in different places.

B1: TIPS: Zea mays EPSPS double mutant T102I and P106S, SEQ ID NO:9; positive control (protein)
chain: AGAEEIVLQPIKEISGTVKLPGSKSLSNRILLLAALSEGTTVVDNLLNSEDVHYMLGALRTLGLSVEADKAAKRAVVVGCGGKFPVEDSKEEVQLFLGNAGIAMRSLTAAVTAAGGNATYVLDGVPRMRERPIGDLVVGLKQLGADVDCFLGTDCPPVRVNGIGGLPGGKVKLSGSISSQYLSALLMAAPLALGDVEIEIIDKLISIPYVEMTLRLMERFGVKAEHSDSWDRFYIKGGQKYKSPKNAYVEGDASSASYFLAGAAITGGTVTVEGCGTTSLQGDVKFAEVLEMMGAKVTWTETSVTVTGPPREPFGRKHLKAIDVNMNKMPDVAMTLAVVALFADGPTAIRDVASWRVKETERMVAIRTELTKLGASVEEGPDYCIITPPEKLNVTAIDTYDDHRMAMAFSLAACAEVPVAIRDPGCTRKTFPDYFDVLSTFVKN
modifications: Zea mays
notes: positive control
B2: TIPS-P126S-K296R: maize EPSPS variant, probably SEQ ID NO:11 (protein)
chain: B1 chain with P126S, K296R
modifications: Zea mays

Assays:
maize EPSPS = test: In vitro characterization of EPSPS mutants (EnzChek phosphate assay, Michaelis-Menten kinetics, glyphosate Ki); format: biochemical, Zea mays; details: for Km: apparent Km, mean±S.E.; for Ki: inhibitory constant for glyphosate, no unit in table (around 800 μM)
Protocol: Activity was determined by quantifying release of Pi, coupled to a reaction with MESG, catalyzed by purine-nucleoside phosphorylase using the EnzChek Phosphate Assay Kit from Invitrogen, first published in 1992. 95 μL of master mix was added to each well and 5 μL of the varied substrate dilutions were multi-channeled into the plate to start the reaction simultaneously for all conditions. Absorbance measurements at 360 nm were taken every 10 seconds for 3 minutes to capture the initial reaction rate of each condition. Varying levels of substrate were added to generate the resulting reaction rate curves. Each condition was performed in triplicate. Ki was determined as previously described (Lu, et al., Protein Engineering, Design and Selection 30:395-399 (2017)). Data was fit to the Michaelis-Menten kinetics equation and were also validated through GraphPad Prism's built-in function for each variant.
For protein expression of EPSPS and its variants, E. coli BL21 (DE3) was used as the expression host. Electrocompetent cells were transformed with the corresponding constructed plasmids, pET28a (+) with selected EPSPS variants (wild-type, TIPS, TIPS P126S, TIPS K296R, TIPS P126S/K296R). A single colony of an E. coli BL21 (DE3) strain harboring one of the constructed plasmids was inoculated into 2 mL of Luria Bertani broth (LB) medium with 50 μg/mL kanamycin and grown overnight at 37° C./225 rpm. The overnight-grown culture (using 100 μl) was scaled up with 2000-fold dilution in a 500-mL triple baffled shake flask and grown to a cell density of 0.8 (optical density [OD600]) at 37° C./225 rpm. Protein expression was induced by adding 0.2 mM of isopropyl β-D-1-thiogalactopyranoside (IPTG) and cells were cultured for 24 hours at 20° C./225 rpm. The induced cell culture was harvested by centrifugation at 4,000 g and 4° C. for 20 mins. Cell pellets were then resuspended in 25 mL of Dulbecco's Phosphate Buffered Saline (DPBS) (Thermo Fisher Scientific, Waltham, MA) pH 7.0 buffer containing 10 mM imidazole, 1 g/L of lysozyme and 5 μl of Pierce™ Universal Nuclease (Thermo Fisher Scientific, Waltham, MA), followed by mixing on a rocker for 30 mins at 4° C. Subsequently, cells were lysed by sonication and the resulting cell lysate was centrifuged at 14,000 g and 4° C. for 20 minutes to obtain the supernatant that contains soluble proteins. Target proteins from the supernatant was purified by HisPur™ Ni-NTA Resin (Thermo Fisher Scientific, Waltham, MA) according to the manufacturer's instruction.
The eluate was dialyzed with 3C protease added to the dialysis cassette, into the appropriate buffer followed by size-exclusion fast protein liquid chromatography. All EPSP synthase variants were stored in 20 mM Tris (pH 7.5), 100 mM NaCl and 10 mM β-mercaptoethanol. The protein concentration was then determined by using the Coomassie Plus Bradford Assay kit (Thermo Fisher Scientific) and the Infinite M200 PRO microplate reader (Tecan, Männedorf, Switzerland) to measure the absorbance of assay mixtures. The presence and purity of the purified proteins were assessed by sodium dodecyl sulfate-polyacrylamide gel electrophoresis.
Enzymatic activity, including inhibitory constant Ki, for EPSPS and TIPS closely corroborate values determined by previous reports. Mutations P126S and K296R have beneficial effects on their own to both Km and kcat and are additive when combined, similar to the observations of the in vivo growth characterization. Furthermore, the high Ki is maintained for each of the variants, showing similar or slightly higher values of around 800 μM compared to the starting point, TIPS. These findings confirm the phenotype endowed by the dual-trait selection pressure employed during the directed evolution campaigns. Kinetic parameters of maize EPSPS with mutations discovered through directed evolution. In Table 4, initial velocity data were measured in triplicate and fit to the Michaelis-Menten equation. […]

[1] = tested on: S. cerevisiae strain sKR-024; test: Growth of synthetic yeast strain sKR-024 expressing EPSPS variants with or without glyphosate; format: cell-based, Saccharomyces cerevisiae; details: for growth in yeast minimal media without glyphosate: 0 mM glyphosate
Protocol: EPSPS variants were re-cloned into a clean p416-Core1p backbone and transformed into strain sKR-024 as described above. Colonies were then picked in triplicate into YSC-Ura-Leu and outgrown for 2 days at 30° C. Cultures were then diluted back to OD 0.001 in yeast minimal media (YMM) containing varying amounts of glyphosate as indicated. Growth rate measurements were then obtained using an Infinite M200 PRO microplate reader (Tecan, Männedorf, Switzerland) with incubation at 30° C. for 72-120 hours depending on growth rate of selected variants.
To determine if this system could further corroborate observations from previous literature, the well-studied EPSPS mutants T102I and P106S, and the combined double mutant TIPS (T102I-P106S) were generated and complemented into this yeast system. These mutations were reported to result in varying degrees of glyphosate resistance.
Having established low copy number and weak promoter expression of EPSPS variants, it was sought to recharacterize phenotypes under field conditions that are used in planta. […] It has been reported previously that under standard glyphosate foliar application, 0.3 mM or more of glyphosate (gly) can accumulate in a plant's root nodules and meristems. […] These trends support reported literature of mutants P106S and TIPS grown in various plant hosts. As a result, the present synthetic yeast model system closely resembles in planta observations and thus can be used to select for dual-trait EPSPS variants aimed at both enzymatic efficiency and glyphosate resistance.
Select mutants isolated from the final directed evolution campaign with the improved selection strategy were further evaluated in assorted glyphosate concentrations to determine growth characteristics. Mutants isolated from an EPSPS background were evaluated in media containing 0 mM and 0.25 mM glyphosate with the latter being the concentration at which wild-type EPSPS cannot grow after 100 hours. […] The non-glyphosate mono selection highlighted in blue represents mutations resulting from 5 subcultures in 0 mM glyphosate. The low glyphosate dual selection highlighted in light green represents mutants resulting from an additional subculture into 0.5 mM glyphosate. Lastly, the high glyphosate dual selection highlighted in dark green represent mutations isolated after subcultures in increasing levels of glyphosate, up to 10 mM.

[2] = PEP at saturation (roughly 10 times its Km), read-out: Km (S3P)
[3] = S3P at saturation (roughly 10 times its Km), read-out: Km (PEP)

Molecule | Km (maize EPSPS; [2]) [µM] | Km (maize EPSPS; [3]) [µM] | Ki (maize EPSPS) [µM] | growth in yeast minimal media without glyphosate [1] | growth in glyphosate ([1]; 0.5 mM glyphosate, Core1p promoter) | order of glyphosate tolerance ([1]; 5 mM glyphosate, FIG. 1 Panel C) | enzymatic efficiency relative to TIPS (maize EPSPS; higher than evolutionary starting point TIPS) | growth across glyphosate levels ([1]; 0.05 mM to 5 mM glyphosate)
B1 | 33.2 | 26.2 | 739 | grew at a significant deficit | grew well in the presence of glyphosate | P106S<T102I<TIPS |  | 
B2 | 16.8 | 15.5 | 871 | performed very similarly to wild-type EPSPS |  |  | roughly 2.5 fold | performed extremely well in every condition of glyphosate
